Drawing on patent US20260240994A1 (MAYO FOUNDATION FOR MEDICAL EDUCATION AND RESEARCH, published 2026), this text covers binding result and Kd for 1 molecule.

Test [1] deals with T1, Recombinant Human E-cadherin Fc chimera (BioLegend) (human, UniProt P12830 155-707).
T1 construct: also called human Ecad Fc chimeric protein; recombinant human Ecad Fc chimera; Fc part of the bought chimera not given
T1 sequence (looked up): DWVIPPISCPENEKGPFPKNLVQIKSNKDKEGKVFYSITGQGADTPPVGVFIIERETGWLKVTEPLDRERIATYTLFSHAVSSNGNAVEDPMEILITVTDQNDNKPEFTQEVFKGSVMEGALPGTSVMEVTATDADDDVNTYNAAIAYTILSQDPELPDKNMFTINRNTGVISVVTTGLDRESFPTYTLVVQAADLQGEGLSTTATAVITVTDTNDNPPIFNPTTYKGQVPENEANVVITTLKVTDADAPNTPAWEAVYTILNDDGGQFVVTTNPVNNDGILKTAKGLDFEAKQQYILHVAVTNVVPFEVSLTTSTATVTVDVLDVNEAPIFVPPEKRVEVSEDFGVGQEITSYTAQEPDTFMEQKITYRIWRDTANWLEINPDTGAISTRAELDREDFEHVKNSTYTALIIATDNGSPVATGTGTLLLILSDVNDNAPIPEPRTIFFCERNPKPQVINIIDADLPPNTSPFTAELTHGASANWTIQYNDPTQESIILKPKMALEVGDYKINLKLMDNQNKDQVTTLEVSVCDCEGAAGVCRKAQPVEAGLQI
Put plainly: phage display panning. The source says: (§1) hmcECAD.6 scFv sequence was generated and optimized for binding to Ecad protein through phage display library selection. A naive human scFv library of approximately 2×10⁹ diversity was used to screen against recombinant Ecad protein (Biomolecular Discovery, Rochester, NY). The hmcECAD.6 scFv clone was identified after two rounds of screening against mouse Ecad followed by another round of panning on human Ecad Fc chimeric protein (both from BioLegend, San Diego, CA). […] Final hmcECAD.6 sequence (SEQ ID NO: 90) was codon optimized for cloning of heavy and light chain into EcCAR plasmid.

Test [2] deals with T2, mouse Ecad (recombinant protein, BioLegend) (mouse, UniProt P09803 157-709, limits assumed).
T2 construct: Bought recombinant protein; Also used here for the general statements of mouse cross-reactivity; also called mouse E-cadherin
T2 sequence (looked up): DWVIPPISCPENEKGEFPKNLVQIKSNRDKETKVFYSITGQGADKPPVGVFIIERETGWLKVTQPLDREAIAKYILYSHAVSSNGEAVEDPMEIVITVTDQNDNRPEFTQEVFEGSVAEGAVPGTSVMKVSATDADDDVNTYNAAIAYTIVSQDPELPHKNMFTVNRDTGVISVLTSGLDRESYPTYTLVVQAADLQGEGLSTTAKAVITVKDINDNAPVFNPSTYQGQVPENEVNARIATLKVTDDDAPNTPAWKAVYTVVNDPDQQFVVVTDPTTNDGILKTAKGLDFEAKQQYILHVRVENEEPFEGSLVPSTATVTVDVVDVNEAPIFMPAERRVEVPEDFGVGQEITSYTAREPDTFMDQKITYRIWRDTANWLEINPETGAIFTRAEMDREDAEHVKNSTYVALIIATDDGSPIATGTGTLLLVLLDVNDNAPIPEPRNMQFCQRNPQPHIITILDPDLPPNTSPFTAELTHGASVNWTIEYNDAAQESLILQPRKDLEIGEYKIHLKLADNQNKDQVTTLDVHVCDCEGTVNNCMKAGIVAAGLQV
The experiment in a line: phage ELISA; relative affinity estimated against the FLAG antibody signal.
Description: as §1

B1: hmcECAD.6 scFv clone (scFv)
scFv: LPVLTQPPSASGTPGQRVTISCSGSSSNIGSNYVYWYQQLPGTAPKLLIYRNNQRPSGVPDRFSGSKSGTSASLAISGLQSEDEADYYCASWDTSLRAWVFGGGTKLTVLGEGKSSGSGSESKASEVQLVQSGGGLVQPGGSLRLSCAASGFTFSSYSMNWVRQAPGKGLEWVSYISSSSSTIYYVDSVKGRFTISRDNAKNSLYLQMDSLRAEDTAVYYCARGGRVLVGALFDYWGQGTLVTVSS
notes: Human scFv from a naive phage display library; also called anti-hmcECAD.6; anti-Ecad scFv
Consider B1, for which the binding result in test [1] is given as “binds”. In addition, in test [2], the Kd (in general, the concentration at which binding is half-saturated) was roughly 5 nM.
